Measurements reported in patent US20170325479A1.

Experiments:
[1] = target: T1, 33-mer of gliadin (alpha-2-gliadin) (aa56-88)
T1 chain: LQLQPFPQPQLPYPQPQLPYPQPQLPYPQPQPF

H-AAPPA-NH2 = target: T2, H-AAPPA-NH2
T2 chain: AAPPA

[2] = target: T3, beta-casein tryptic peptide GPFPIIV
T3 chain: GPFPIIV

[3] = target: T4, beta-casein tryptic peptide HKEMPFPK
T4 chain: HKEMPFPK

[4] = target: T5, beta-lactoglobulin peptide IIAEK
T5 chain: IIAEK

[5] = target: T6, beta-lactoglobulin peptide VYVEELKPTPEGDLEILLQK
T6 chain: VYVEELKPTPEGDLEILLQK

B1: proline tolerant tripeptidyl peptidase TRI083 (protein)
chain: QEPSSCKGTLVFEGETFNVFQPDCLRTEYSVDGYTPSVKSGSRIGFGSFLNESASFADQALFEKHFNIPSQNFSVVLINGGTDLPQPPSDANDGEANLDAQTILTIAHPLPITEFITAGSPPYFPDPVEPAGTPNENEPYLQYYEFLLSKSNAEIPQVITNSYGDEEQTVPRSYAVRVCNLIGLLGLRGISVLHSSGDEGVGASCVATNSTTPQFNPIFPATCPYVTSVGGTVSFNPEVAWAGSSGGFSYYFSRPWYQQEAVGTYLEKYVSAETKKYYGPYVDFSGRGFPDVAAHSVSPDYPVFQGGELTPSGGTSAASPVVAAIVALLNDARLREGKPTLGFLNPLIYLHASKGFTDITSGQSEGCNGNNTQTGSPLPGAGFIAGAHWNATKGWDPTTGFGVPNLKKLLALVRF
Relative MS peak intensities of alpha-2-gliadin (intact substrate), 0 min (relative MS peak intensity) [1]: 100
Relative MS peak intensities of alpha-2-gliadin (intact substrate), 1 min (relative MS peak intensity) [1]: 10
Relative MS peak intensities of alpha-2-gliadin (intact substrate), 3 min (relative MS peak intensity) [1]: 0
Relative MS peak intensities of alpha-2-gliadin (intact substrate), 5 min (relative MS peak intensity) [1]: 0
Relative MS peak intensities of alpha-2-gliadin (intact substrate), 10 min (relative MS peak intensity) [1]: 0
Relative MS peak intensities of alpha-2-gliadin (intact substrate), 15 min (relative MS peak intensity) [1]: 0
Relative MS peak intensities of alpha-2-gliadin (intact substrate), 30 min (relative MS peak intensity) [1]: 0
hydrolysis of substrate followed by LC-MS [1]: proline tolerant tripeptidyl peptidase was found to cleave the substrate alpha-2-gliadin consecutively into tri-peptides irrespective of a high proline content
digestion measured with LC-MS (Bradykinin): The proline tolerant tripeptidyl peptidase efficiently digests the bradykinin peptide having the amino acid sequence RPPGFSPFR (see FIG. 24)
hydrolysis of substrate followed by LC-MS and label free quantification (H-AAPPA-NH2): proline tolerant tripeptidyl peptidase over time is able to degrade the peptide AAPPA (FIG. 5) and generate the product AAP (FIG. 6)
digestion measured with LC-MS [2]: the proline tolerant tripeptidyl peptidase is able to efficiently digest this peptide with proline in the P1′ position and in the P2 position
digestion measured with LC-MS [3]: the peptide HKEMPFPK is also efficiently digested by the proline tolerant tripeptidyl peptidase
digestion measured with LC-MS [4]: shows the digestion of a fragment of β-lactoglobulin (peptide IIAEK) by a proline tolerant tripeptidyl peptidase
digestion measured with LC-MS [5]: shows the digestion of a fragment of β-lactoglobulin (peptide VYVEELKPTPEGDLEILLQK) by a proline tolerant tripeptidyl peptidase
